The supplement of paper PMC9112550, “Optimization of the antimicrobial peptide Bac7 by deep mutational scanning” (BMC Biology, 2022)

Tested on: Escherichia coli TOP10
Assay: shrunken log2 fold change of peptide-encoding DNA abundance (4.5 h post-induction vs induction); higher = less antimicrobial activity (less host growth inhibition)
Details: time post-induction: 4.5 h; library: site-saturation at positions 5, 18, 19, 20
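Also: peptides expressed intracellularly from a pBAD plasmid library in pooled LB shake-flask culture, induced with 0.3% L-arabinose, DNA abundance read by NGS, three biological replicates, DESeq2 with apeglm shrinkage.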

Sequence	shrunken log2 fold change
RRIRARPPRLPRPRPRPCIWPRP	0.118
RRIRPRPPRLPRPRPRPFTIPRP	-0.0323
RRIRGRPPRLPRPRPRPYWVPRP	-0.178
RRIRERPPRLPRPRPRPHYTPRP	-0.615
RRIRNRPPRLPRPRPRPTQCPRP	-0.093
RRIRWRPPRLPRPRPRPPVHPRP	-0.221
RRIRQRPPRLPRPRPRPDVSPRP	0.0409
RRIRHRPPRLPRPRPRPNDPPRP	-0.246
RRIRSRPPRLPRPRPRPNHSPRP	-0.736
RRIRYRPPRLPRPRPRPDCYPRP	-3.15
RRIRYRPPRLPRPRPRPDATPRP	0.104
RRIRHRPPRLPRPRPRPRWQPRP	0.176
RRIRMRPPRLPRPRPRPISQPRP	-0.29
RRIRKRPPRLPRPRPRPWNHPRP	-0.172
RRIRARPPRLPRPRPRPFYEPRP	-0.125
RRIRCRPPRLPRPRPRPIYLPRP	-0.457
RRIRSRPPRLPRPRPRPMLSPRP	0.149
RRIRCRPPRLPRPRPRPCVEPRP	-0.0788
RRIRERPPRLPRPRPRPVEMPRP	0.139
RRIRPRPPRLPRPRPRPMMNPRP	0.03
RRIRGRPPRLPRPRPRPVHEPRP	0.434
RRIRLRPPRLPRPRPRPKSCPRP	0.0755
RRIRFRPPRLPRPRPRPGVHPRP	-0.0827
RRIRVRPPRLPRPRPRPWKSPRP	0.0332
RRIRYRPPRLPRPRPRPFHHPRP	-1.19

Sequence	shrunken log2 fold change
RRIRLRPPRLPRPRPRPERFPRP	0.219
RRIRGRPPRLPRPRPRPASVPRP	0.454
RRIRTRPPRLPRPRPRPTNMPRP	-0.409
RRIRERPPRLPRPRPRPTALPRP	-0.415
RRIRTRPPRLPRPRPRPYPCPRP	-0.245
RRIRVRPPRLPRPRPRPHEHPRP	-0.0873
RRIRERPPRLPRPRPRPSDTPRP	-0.287
RRIRLRPPRLPRPRPRPIYGPRP	0.0275
RRIRFRPPRLPRPRPRPWHMPRP	-0.121
RRIRFRPPRLPRPRPRPHNRPRP	0.0584
RRIRNRPPRLPRPRPRPSALPRP	-0.213
RRIRKRPPRLPRPRPRPTWKPRP	0.107
RRIRTRPPRLPRPRPRPSGLPRP	-0.573
RRIRIRPPRLPRPRPRPCQLPRP	-0.812
RRIRPRPPRLPRPRPRPLRKPRP	0.319
RRIRIRPPRLPRPRPRPDGRPRP	-0.13
RRIRGRPPRLPRPRPRPRQDPRP	0.452
RRIRFRPPRLPRPRPRPDNHPRP	-0.232
RRIRVRPPRLPRPRPRPCHHPRP	-0.00671
RRIRGRPPRLPRPRPRPVIDPRP	0.292
RRIRDRPPRLPRPRPRPLAQPRP	0.83
RRIRRRPPRLPRPRPRPYNNPRP	-0.76
RRIRCRPPRLPRPRPRPNFQPRP	-0.438
RRIRVRPPRLPRPRPRPGPSPRP	0.201
RRIRNRPPRLPRPRPRPWSSPRP	-0.0666

Sequence	shrunken log2 fold change
RRIRPRPPRLPRPRPRPCNVPRP	-0.314
RRIRQRPPRLPRPRPRPHTGPRP	-0.18
RRIRERPPRLPRPRPRPQACPRP	-0.0746
RRIRSRPPRLPRPRPRPGVIPRP	-0.0412
RRIRIRPPRLPRPRPRPSMFPRP	-0.801
RRIRYRPPRLPRPRPRPIRAPRP	0.0501
RRIRQRPPRLPRPRPRPHYLPRP	-0.0046
RRIRERPPRLPRPRPRPLTVPRP	-0.0383
RRIRFRPPRLPRPRPRPVWEPRP	0.00583
RRIRPRPPRLPRPRPRPEAQPRP	0.904
RRIRRRPPRLPRPRPRPMGIPRP	0.0313
RRIRCRPPRLPRPRPRPVYPPRP	-0.559
RRIRPRPPRLPRPRPRPKCDPRP	-0.314
RRIRTRPPRLPRPRPRPALSPRP	-0.0737
RRIRFRPPRLPRPRPRPMKIPRP	0.25
RRIRVRPPRLPRPRPRPQAHPRP	-0.209
RRIRHRPPRLPRPRPRPLSIPRP	-0.326
RRIRIRPPRLPRPRPRPEKMPRP	-0.165
RRIRARPPRLPRPRPRPRKPPRP	0.114
RRIRKRPPRLPRPRPRPQVSPRP	-0.0595
RRIRERPPRLPRPRPRPVLFPRP	-0.141
RRIRHRPPRLPRPRPRPGWQPRP	0.33
RRIRERPPRLPRPRPRPCNFPRP	-0.125
RRIRIRPPRLPRPRPRPNRPPRP	-0.212
RRIRPRPPRLPRPRPRPFTHPRP	-0.466

Sequence	shrunken log2 fold change
RRIRERPPRLPRPRPRPTVDPRP	-0.0352
RRIRYRPPRLPRPRPRPIKCPRP	-0.00104
RRIRARPPRLPRPRPRPRHHPRP	0.0585
RRIRHRPPRLPRPRPRPKAQPRP	0.0148
RRIRPRPPRLPRPRPRPGHLPRP	0.234
RRIRLRPPRLPRPRPRPSPGPRP	0.0266
RRIRCRPPRLPRPRPRPHRWPRP	0.317
RRIRVRPPRLPRPRPRPTMCPRP	0.15
RRIRFRPPRLPRPRPRPKPLPRP	0.433
RRIRFRPPRLPRPRPRPFLWPRP	-0.0874
RRIRERPPRLPRPRPRPYFQPRP	-0.967
RRIRLRPPRLPRPRPRPMRFPRP	0.0595
RRIRLRPPRLPRPRPRPQVEPRP	0.0591
RRIRWRPPRLPRPRPRPTSKPRP	-0.0975
RRIRTRPPRLPRPRPRPSGCPRP	-0.375
RRIRLRPPRLPRPRPRPNDDPRP	-0.248
RRIRARPPRLPRPRPRPWWTPRP	0.239
RRIRNRPPRLPRPRPRPYNNPRP	-1.19
RRIRDRPPRLPRPRPRPLFEPRP	0.7
RRIRMRPPRLPRPRPRPDNRPRP	0.00102
RRIRERPPRLPRPRPRPIYHPRP	-0.626
RRIRMRPPRLPRPRPRPPFFPRP	0.528
RRIRIRPPRLPRPRPRPIDEPRP	0.0184
RRIRYRPPRLPRPRPRPLGDPRP	-0.079
RRIRQRPPRLPRPRPRPIMKPRP	-0.0798

Sequence	shrunken log2 fold change
RRIRPRPPRLPRPRPRPITNPRP	-0.471
RRIRHRPPRLPRPRPRPHFWPRP	-0.0607
RRIRLRPPRLPRPRPRPDYHPRP	-0.576
RRIRKRPPRLPRPRPRPDTCPRP	0.0482
RRIRVRPPRLPRPRPRPTAGPRP	-0.0283
RRIRARPPRLPRPRPRPMRVPRP	0.789
RRIRIRPPRLPRPRPRPYHTPRP	-1.25
RRIRRRPPRLPRPRPRPDDGPRP	-0.147
RRIRLRPPRLPRPRPRPTFKPRP	-0.0433
RRIRTRPPRLPRPRPRPKHVPRP	-0.658
RRIRIRPPRLPRPRPRPVLIPRP	-0.469
RRIRCRPPRLPRPRPRPSECPRP	-0.0818
RRIRCRPPRLPRPRPRPAARPRP	0.392
RRIRERPPRLPRPRPRPNGMPRP	-0.0154
RRIRTRPPRLPRPRPRPGDNPRP	-0.00277
RRIRYRPPRLPRPRPRPSTGPRP	-0.0197
RRIRWRPPRLPRPRPRPKVSPRP	0.198
RRIRIRPPRLPRPRPRPAQYPRP	-0.13
RRIRERPPRLPRPRPRPCMRPRP	-0.0898
RRIRNRPPRLPRPRPRPGHCPRP	-0.062
RRIRPRPPRLPRPRPRPNFLPRP	0.0421
RRIRVRPPRLPRPRPRPPSDPRP	0.197
RRIRARPPRLPRPRPRPFSHPRP	-0.124
RRIRGRPPRLPRPRPRPFKNPRP	0.243
RRIRPRPPRLPRPRPRPHRHPRP	-0.47
